{"source": "paper PMC4509486", "about": "“Inside-out Ca^2+ signalling prompted by STIM1 conformational switch” (Nature Communications, 2015)", "proteins": {"B1": {"name": "STIM1 1–342 (characterized in vitro) (domain or fragment, UniProt Q13586 23-342, looked up)", "chain": "LSHSHSEKATGTSSGANSEESTAAEFCRIDKPLCHSEDEKLSFEAVRNIHKLMDDDANGDVDVEESDEFLREDLNYHDPTVKHSTFHGEDKLISVEDLWKAWKSSEVYNWTVDEVVQWLITYVELPQYEETFRKLQLSGHAMPRLAVTNTTMTGTVLKMTDRSHRQKLQLKALDTVLFGPPLLTRHNHLKDFMLVVSIVIGVGGCWFAYIQNRYSKEHMKKMMKDLEGLHRAEQSLHDLQERLHKAQEEHRTVEVEKVHLEKKLRDEINLAKQEAQRLKELREGTENERSRQKYAEEELEQVREALRKAEKELESHSSWY", "notes": "signal peptide in the construct; it may be the CFP fusion m18"}, "B2": {"name": "GB1-TM-CC1 (STIM1 residues 209–310), wild type (domain or fragment, UniProt Q13586 209-310, looked up)", "chain": "NHLKDFMLVVSIVIGVGGCWFAYIQNRYSKEHMKKMMKDLEGLHRAEQSLHDLQERLHKAQEEHRTVEVEKVHLEKKLRDEINLAKQEAQRLKELREGTENE", "notes": "STIM1 residues 209-310 (transmembrane domain and CC1); also called STIM1_(209–310); WT; source: E. coli BL21 (DE3), purified (Ni-NTA, gel filtration); not shown: GB1, N-terminal, kept"}, "B3": {"name": "TM-CC1 monocysteine variant F214C on the C227W background, labelled with FITC or TMR (domain or fragment, UniProt Q13586 209-310, looked up)", "chain": "B2 chain with F6C, C19W", "modifications": "FITC-maleimide or TMR-maleimide on the single cysteine (F214C)", "notes": "STIM1 residues 209-310 (TM-CC1); also called F214C (C227W TM-CC1); source: E. coli BL21 (DE3), purified, dye-labelled"}, "B4": {"name": "TM-CC1 monocysteine variant N234C on the C227W background, labelled with FITC or TMR (domain or fragment, UniProt Q13586 209-310, looked up)", "chain": "B2 chain with C19W, N26C", "modifications": "FITC-maleimide or TMR-maleimide on the single cysteine (N234C)", "notes": "STIM1 residues 209-310 (TM-CC1); also called N234C (C227W TM-CC1); source: E. coli BL21 (DE3), purified, dye-labelled"}, "B5": {"name": "GB1-TM-CC1 monocysteine variant F229C on the C227S background (domain or fragment, UniProt Q13586 209-310, looked up)", "chain": "B2 chain with C19S, F21C", "notes": "STIM1 residues 209-310; also called F229C (C227S); source: E. coli BL21 (DE3), purified; not shown: GB1, N-terminal, kept"}, "B6": {"name": "GB1-TM-CC1 monocysteine variant I220C on the C227W background (domain or fragment, UniProt Q13586 209-310, looked up)", "chain": "B2 chain with I12C, C19W", "notes": "STIM1 residues 209-310; also called I220C (C227W); source: E. coli BL21 (DE3), purified; not shown: GB1, N-terminal, kept"}, "B7": {"name": "GB1-TM-CC1 (STIM1 residues 209–310) C227W (domain or fragment, UniProt Q13586 209-310, looked up)", "chain": "B2 chain with C19W", "notes": "STIM1 residues 209-310; also called TM-CC1-C227W; source: E. coli BL21 (DE3), purified (Ni-NTA, gel filtration); not shown: GB1, N-terminal, kept"}, "B8": {"name": "GB1-TM-CC1 monocysteine variant I220C on the C227S background (domain or fragment, UniProt Q13586 209-310, looked up)", "chain": "B2 chain with I12C, C19S", "notes": "STIM1 residues 209-310; also called I220C (C227S); source: E. coli BL21 (DE3), purified; not shown: GB1, N-terminal, kept"}, "B9": {"name": "GB1-TM-CC1 monocysteine variant F229C on the C227W background (domain or fragment, UniProt Q13586 209-310, looked up)", "chain": "B2 chain with C19W, F21C", "notes": "STIM1 residues 209-310; also called F229C (C227W); source: E. coli BL21 (DE3), purified; not shown: GB1, N-terminal, kept"}}, "key": {"[1]": {"target": "the molecule itself", "assay": "SEC + native gel or EMSA; in vitro, with or without Ca^2+; detergents needed to keep the proteins soluble"}, "[2]": {"target": "the molecule itself", "assay": "SEC-MALS; Superdex 200 10/300 GL; 500 μl of 10–100 μM protein; 20 mM Tris-HCl pH 7.3, 150 mM NaCl, 2 mM dithiothreitol, 0.6% N-lauroylsarcosine; 0.3 ml/min"}, "[3]": {"target": "the molecule itself", "assay": "FRET or BRET; inter-subunit FRET between FITC- and TMR-labelled monocysteine TM-CC1 in PBS pH 7.3, 1% OG, 1 mM TCEP; excitation 475 nm"}, "[4]": {"target": "the molecule itself", "assay": "cross-linking; copper-phenanthroline (1 mM CuSO4/3 mM 1,10-phenanthroline) disulfide cross-linking of purified protein (1 mg/ml) in 20 mM HEPES pH 7.4, 150 mM NaCl, 1 mM TCEP, on ice 15 min; non-reducing SDS-PAGE; efficiency = dimer/(monomer + dimer)"}}, "note": "Positions count from the first letter of the chain named. Names and notes keep the numbering of the source.", "data": [{"protein": "B1", "values": [{"measurement": "stoichiometry N", "setting": "[1]", "value": 2}]}, {"protein": "B2", "values": [{"measurement": "stoichiometry N", "setting": "[2]", "value": 2}]}, {"protein": "B3", "values": [{"measurement": "binding result", "setting": "[3]", "value": "binds"}]}, {"protein": "B4", "values": [{"measurement": "binding result", "setting": "[3]", "value": "binds"}]}, {"protein": "B5", "values": [{"measurement": "binding result", "setting": "[4]", "value": "binds"}]}, {"protein": "B6", "values": [{"measurement": "binding result", "setting": "[4]", "value": "binds"}]}, {"protein": "B7", "values": [{"measurement": "stoichiometry N", "setting": "[2]", "value": 2}]}, {"protein": "B8", "values": [{"measurement": "binding result", "setting": "[4]", "value": "binds"}]}, {"protein": "B9", "values": [{"measurement": "binding result", "setting": "[4]", "value": "binds"}]}]}
